Drawing on article PMC4457421, this text covers stoichiometry N for one substance.

The assay concerns the target Bacteriorhodopsin from Halobium salinarum expressed in E. coli (Halobium salinarum) (UniProt P02945). Briefly: crystal structure; in meso nanovolume crystallisation in monooleoyl-based lipid mesophase, protein 20 mg/ml, 1.5M Na/K-Pi pH 5.6, 22°C; space group C2, three monomers in the asymmetric unit; 1.9 Å.

“Bacteriorhodopsin from Halobium salinarum expressed in E. coli (from UniProt P02945 14-262) (natural protein)”: the stoichiometry N – broadly, a count of units in the complex or per binding partner – was 3.
